Experimental data from the DeepSol protein solubility set.

Test: soluble on expression in E. coli; label from the status in PepcDB or PDB records

| Sequence | soluble on expression in E. coli |
| --- | --- |
| MSLKKLIVLTCTLSLLTACGDSIEKKAGEKLAAARAAFEHNDYNEAKLQIDSIKILYPKAFDTRKEGIKLMQQVELKEQQESLVYLDSMLQVKQEEFEAIKNKYTFEKNEEYQKIGNYFWPTQTVEKNLHRSFLRFQVNEQGVMTLTSIYCGPSNIHHVAVKVIAPDGSFAETPASNDSYETTDLGEKIEKADYKMGEDGNVLSFLYMNRDKKNIRVEYLGERKFSTTMTPSDREALVGTYELAKLLSSIRQIQQEKEEANLKIEFVKRKMEQKAQEEAAEKEGHHHHHH | soluble |
| MSGAPPPPPPYNQAYNAYPQPPQGVYTVQPGVPIGQGVQPAYAVYYQQPQTVIVDDCHHHHHHREREHGGGGGEMCCLAGLMACLCFLCLSK | not soluble |
| MGSDKIHHHHHHMYYISLNVKRRKLNKDNNYNEFLTDPIYSRLIENVEKLKDKVFHLSKIVNLQAYMEGFTFYTSSNYRSTPIDVIPRIITSELFFKISNYLVARSYVLNKFIREVYQEGSNPIPDWIVKTTPYFRPEMMGFSPPKDIYIHVYGADIVRVNGVPFILEDNLRIPSGISYSYKAFEYVDRFLPELKEGYDNRVLQINGLDYLYDILRYVSGNKDPIIVILTDGNYNSAYFEHKFISEKLGIILAEPNDIYVKDKEVVVRTVDEGEVHVDVIYRRIEDLDYLTPGLMKAYLRGWVTLANAPGTGVADDKATFVWIPYLAEKYGIKLENVIQPYTICLYEKENLEKVITQPTRYVIKKREGYGGIGLAIVKDDNINVLKEIYKEYENFIAQEVLDFDTVISVVNDSFYETYADMRIFTYYDKVASAVLSRVGIMGSRITNNSSGGMVKPLWIIK | not soluble |
| MGSDKIHHHHHHMLSGSTQLMPSTVGLASAHLQYSASFFPTTAVYSLLFPDKSIIIGTVALGYAQTRPQDLPVTHILTKGNRTFKLSIASTPEQLEKGLKFRSSLNGDSGMLFNLGGEIYNVPFWMYKVNFPLDIFYLKDNVVTTAVYNAKPCYKNPCPIYKGKVANQVLELATGTANIKVGDRLNIQPLSSAKE | not soluble |
| MGSDKIHHHHHHMSRPADKPQPFYFAYGSNMNPAQIEARCRKPEVVATARLPDHRLGFFGSSKIWDGGEESAQPEPGADLWGVVYRLSFHDAEILDTWQKVWLDGTGPYFHFPTQVFDAEGRNYPVLLYKRDVLGPRQKPSAPYLDHIIAGAMARALPPPYIDLLRAIPTCQASTPVPRKASFNPEFFAGLACQCGD | not soluble |
| MIIVKNHKFKLDLLQNEANKEKFEGNTACSTAAYTLVREDASTGLTYTADISKVGNQISGEPAQRIKIREHRRIPKFDLPNLKVSKVYKLPLEASYAKGLLLLLIFCFGLSGCNTSKRLPYSHKYSYKELSKDDPHNLTYKGHYKVGKNYKIKGKTYKPHNPKSFTETGYASWYGGLKDGFHGKKTANGDRFNRNLLTAAHKTLPLPCLVKVTNKANNKAVILMVNDRGPFKKNRIIDVSQRAAEILAFKNQGITKVKIEYLPNETEKFLKNINLKKPQSKTLAKNSKKSSSNKVTNNNKCSVNCHIKLINLKYKLAVTP | soluble |
| MNNNVITRFAPSPTGFLHIGSARTALFNYLFARHHNGKFLLRIEDTDKERSTKEAVEAIFSGLKWLGLDWNGEVIFQSKRNNLYKEAALKLLQNGKAYYCFTRQEEIERQRQQALENKQHFIFNSEWRDKDPSIYPTDIKPVIRLKTPREGSITIHDTLQGEVVIENSHIDDMVLLRADGTATYMLAVVVDDHDMGITHIIRGDDHLTNTARQLAIYQAFGYAVPSMTHIPLIHGADGAKLSKRHGALGIEAYKDMGYLPESLCNYLLRLGWSHGDDEIISMTQAIDWFNLDSLGKSPSKLDFAKMNSLNAHYLRMLDNDSLTSKTVEILEQNYNTLLRHLPYREEFGGNTERSTAAYIDIREDASTGLTYKLPLAVELPKKFKISEQEIGYIKQAMPSLLVRSETLLELTRLAQIYLVDSPIIYSQDSKEIIENCDKNLIKQIIENLSELEQFDKESVQNKFKEIAAANDLKLNDIMKPVRALITGMTASPSIFEIAEILGKENILKRLKII | soluble |
| MGSDKIHHHHHHMKNPNTVISSDYGPIIINLNDNAIGRQISQYGYWATDDINIINTLVNVQLDKFGQIMFYDVGANIGTHSLAIAKTHPDTVAIRAFEAQRQVFNMLCGTMAINGLSNVHCHHNAISEKIGDFIDIPIPDYNSANNFGSLELIPPKNSDNQGIIHSGKMESVKTLSIDSFNEKVDFIKMDIEGMEDKALLGAINTIEHHRPILFLEILKTDVNFVMTFLRERGYLGFQKSFDLIAIPIEYQLQVNGTNRVF | not soluble |
| MGSDKIHHHHHHMYVGTQVAARDDEDFKVWAQLGVKNISADPPGKPASWVLDDFERLRDKVESFGLVLDMVQLPLPSRPIEQASYPDILLAGPERDRQIDAVCTMIENIAKAGIPAAKYNLNLIGIPRTEMELGRGGSLNEAWRWDKADHNADPGLAGVLSEDENWERIDYFLERVVPVAASNKVRLACHPHDPYTPPGYKGVTRVLGTIEGLKKFVQMRENPYHGLNFCQGSIGEMLDNPREEIDDIIRWFGSRDKIFNVHFRNISGGKLSFMETFPDEGDMDMVRSLKLYHELGYRYMIMPDHVPTIAGRDPVGVAFGFCYGYIAALIEALDNKHL | not soluble |
| SLQKLQAQGVHHITLVGAGRQTSIDFWEGVLGMPFIFEQPNLDKASESHLYFDPGDGRLITVFTDESRTPQKRRTPTDPGCVHHIAFAVSRVTFLQAVARLDERGIKHSGVKDRGFMDSIYFEDPLGLLIELASYRFEPPAGFTHADVLMQAHRLRVGRGDYNIAEVHLADAIQVLVESSREG | soluble |
| MGSDKIHHHHHHEQTVKIGILSDMSGPYSDMGGPGSVAAAQLAIDECLAKECKGMKIELLSIDHQNKPDIGVQKAREWADVNKVNAIADLTNSAVALGVQKLTLDHDFVAMYSGPATTKLTNEDCSATGFHWMFDTYALAAGSAQAITKMGGKSWYFLTVDYAFGHSLEADSMAMVKQLGGTVAGSVRHPLNTADMSSFLLQAQSSKAQVVALANGAADTINAIKTAREFGIVQGGQQVVPLLIFLTDIRSLGLEIAQGLTFTEGFYWDQDDQARAFAARFQKAFKDRKPTMVQAGTYSSVLHYLHAVAAAKTTEAKAVSAKMREMPISDAVMRNAAIRPDGRVIHDMLLVKVKSPAESKGDWDFYTIQATIPAAEAFKPLANSACPTVKK | not soluble |
| MSEENITNVQENASDYNEDQIQVLEGLEAVRKRPGMYIGSTSQRGLHHLVWEIVDNAIDEALAGFCTEIEITIEADNSITVRDNGRGIPTGINEKIGRPTVEVIFTVLHAGGKFGGGGYKVSGGLHGVGASVVNALSTSLEVYVHREGQKYYQRFERGDVVMDMEEQGETDYRGTIVHFTPDPQIFTETTEFDFDTLRTRTRELAFLNRGLTISIEDKREEHKVRKDFHYEGGIRSYVEHLNKAKDVIHEPPIYLEGERDDIMVEISMQYNTGFSSNIISFANNIHTYEGGTHESGFKTALTRVINDYARRNKLFKDSDDNLSGEDVREGLTAIISIKHPDPQFEGQTKTKLGNSEARSITDKLFSEALNKFMMENPDVAKKIVEKGVVASRARLAAKRAREVARKSSGLEISSLPGKLADCSSRNPEISELYIVEGDSAGGSAKQGRDRLFQAILPIRGKILNVEKARLDRILANEEIRTIFTAMGTGFGGDFDVSKSRYHKLIIMTDADVDGAHIRTLLLTLFYRYMRPLLDAGYIYIAQPPLYQIKHGKQIEYVYSDGQLEDYLASLDGDTKYSIQRYKGLGEMNPEQLWDTTMNPEHRTLLQVNIKDAIDADETFEMLMGDRVEPRRKFIEDNAQYVKNLDV | not soluble |
| MGSDKIHHHHHHMIQSYPVERSRTIQTRLVLPPDTNHLGTIFGGKVLAYIDEIAALTAMKHANSAVVTASIDSVDFKSSATVGDALELEGFVTHTGRTSMEVYVRVHSNNLLTGERTLTTESFLTMVAVDESGKPKPVPQVEPQTEEEKRLYETAPARKENRKKRAALR | soluble |
| MAHHHHHHMPLVEYVNEEGYRLDGRKEDECRLIKINVGNENIFTDADGFAFYEIGNTKLLSYIQGPTELKKSEEKCSIKCEVFLSPFNVYEKKKKKTKDSVTNEISAYIRNICENIILLDLYKNSEINIFLYIIERDGGVKHAAINTCILALIDAGIAIKYFISACSVLFLQNRILVDGNQLEINSGAPELTMVIELNTHKIVLLEFDAEVPIDIFEAMVRTCMDCCINLGNVMKLTVKENAIKLLCLNNMLNA | not soluble |
